In the supplement of paper PMC12338614:
± gives the uncertainty stated by the source.

B1: library; numbered along this chain (parent)
chain: MEVVDPQQLGMFTEGELMSVGMDTFIHRIDSTEVIYQPRRKRAKLIGKYLMGDLLGEGSYGKVKEVLDSETLCRRAVKILKKKKLRRIPNGEANVKKEIQLLRRLRHKNVIQLVDVLYNEEKQKMYMVMEYCVCGMQEMLDSVPEKRFPVCQAHGYFCQLIDGLEYLHSQGIVHKDIKPGNLLLTTGGTLKISDLGVAEALHPFAADDTCRTSQGSPAFQPPEIANGLDTFSGFKVDIWSAGVTLYNITTGLYPFEGDNIYKLFENIGKGSYAIPGDCGPPLSDLLKGMLEYEPAKRFSIRQIRQHSWFRKKHPPAEAPVPIPPSPDTKDRWRSMTVVPYLEDLHGADEDEDLFDIEDDIIYTQDFTVPGQVPEEEASHNGQRRGLPKAVCMNGTEAAQLSTKSRAEGRAPNPARKACSASSKIRRLSACKQQ

Variants of: B1
Experiment: STK11 functional score (HeLa growth suppression), rescaled enrichment; synonymous median = 1, nonsense median = 0 (normalised score)
Conditions: with HeLa; variant type: missense
How it was run: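 Functional scores are post/pre-selection log ratios corrected to wild type, rescaled to synonymous and nonsense medians, merged over codons and replicate transfections, and given bootstrapped error. They come from POPCode libraries of codon-optimised STK11 integrated by Bxb1 at an AAVS1 landing pad in HeLa, three regions each transfected three times, with BFP-negative, mCherry-positive integrants sorted by FACS and tiled gDNA amplicons sequenced on NextSeq.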

Row | Variant | STK11 functional score
1 | K178M | 0.202 ± 0.1
2 | K416M | 1.67 ± 0.35
3 | V390T | 1.59 ± 0.23
4 | M335I | 1.18 ± 0.55
5 | R425G | 1.55 ± 0.27
6 | Q214V | 0.919 ± 0.23
7 | L184I | 0.978 ± 0.22
8 | I356Y | 1.12 ± 0.18
9 | E396A | 1.29 ± 0.47
10 | R40D | 1.68 ± 0.41
11 | A295N | 1.24 ± 0.13
12 | D330A | 1.18 ± 0.4
13 | L17M | 0.968 ± 0.24
14 | E2Q | 1.21 ± 0.54
15 | L285E | -0.0678 ± 0.11
16 | V338D | 1.39 ± 0.18
17 | L400H | 1.42 ± 0.29
18 | L344H | 1.14 ± 0.19
19 | D207S | 0.778 ± 0.12
20 | E291P | 0.178 ± 0.095
21 | L113S | 0.517 ± 0.11

Row | Variant | STK11 functional score
22 | S193C | 0.963 ± 0.17
23 | S193T | 1.22 ± 0.22
24 | S422E | 1.49 ± 0.17
25 | S422R | 1.47 ± 0.19
26 | Q7I | 1.61 ± 0.17
27 | Q7V | 1.37 ± 0.27
28 | R75W | 0.21 ± 0.14
29 | R75K | 1.51 ± 0.44
30 | E145F | 0.968 ± 0.087
31 | I360G | 1.44 ± 0.23
32 | G155R | 0.742 ± 0.4
33 | N181Y | -0.0251 ± 0.098
34 | K108D | 0.31 ± 0.081
35 | L282R | 0.128 ± 0.1
36 | R297K | -0.29 ± 0.13
37 | H27Y | 1.24 ± 0.73
38 | R405D | 0.895 ± 0.18
39 | L286P | -0.27 ± 0.087
40 | L286T | 1.12 ± 0.14
41 | C391A | 1.51 ± 0.22
42 | F354C | 0.742 ± 0.34

Row | Variant | STK11 functional score
43 | G215C | 1.06 ± 0.2
44 | D327P | 1.59 ± 0.27
45 | E376D | 0.267 ± 0.78
46 | I267S | 1.16 ± 0.29
47 | K64P | 0.931 ± 0.21
48 | E374C | 1.51 ± 0.19
49 | D194G | -0.36 ± 0.095
50 | D115G | 0.497 ± 0.1
51 | D115L | 1.19 ± 0.091
52 | E375Y | 1.52 ± 0.24
53 | S378C | 1.42 ± 0.11
54 | V114F | 1.03 ± 0.12
55 | V3P | 1.69 ± 0.37
56 | G408L | 1.59 ± 0.26
57 | K191C | 0.0918 ± 0.27
58 | E98W | 0.16 ± 0.15
59 | Q220L | 0.714 ± 0.12
60 | Q220P | 0.0844 ± 0.12
61 | P314N | 1.53 ± 0.13
62 | T328W | 1.59 ± 0.26
63 | G370P | 1.59 ± 0.27

Row | Variant | STK11 functional score
64 | D343H | 0.726 ± 0.38
65 | L101Y | 1.21 ± 0.079
66 | G135Q | 1.57 ± 0.1
67 | E92Y | 1.32 ± 0.26
68 | S325I | 1.56 ± 0.26
69 | D350M | 1.65 ± 0.15
70 | Q382K | 1.11 ± 0.44
71 | Q382G | 1.4 ± 0.24
72 | I361R | 1.53 ± 0.18
73 | A316Y | 1.4 ± 0.12
74 | E265C | 1.67 ± 0.28
75 | P324A | 1.35 ± 0.15
76 | A347H | 0.00438 ± 0.16
77 | P323M | 1.55 ± 0.15
78 | P323E | 1.56 ± 0.27
79 | I424V | 1.33 ± 0.23
80 | K146E | 1.14 ± 0.31
81 | K146S | 1.33 ± 0.12
82 | Q399R | 0.852 ± 0.19
83 | Q399F | 1.27 ± 0.39
